Article doi:10.1101/2023.10.19.563136

Key:
[1] = molecular target: phosphorylated HemRFL (full-length HemR) (Leptospira biflexa); test: SEC
[2] = molecular target: phosphorylated HemRREC (phospho-receiver domain of HemR) (Leptospira biflexa); test: SEC

Row | Substance | stoichiometry N [1] | stoichiometry N [2]
1 | phosphorylated HemRFL (full-length HemR) (natural protein) | 2 | –
2 | phosphorylated HemRREC (phospho-receiver domain of HemR) (domain or fragment) | – | 2
